{
  "source": "paper PMC12770486",
  "key": {"RAD51 [1]": {"target": "T1, RAD51 (Homo sapiens, UniProt Q06609 1-339)", "T1 sequence (Q06609 whole entry)": "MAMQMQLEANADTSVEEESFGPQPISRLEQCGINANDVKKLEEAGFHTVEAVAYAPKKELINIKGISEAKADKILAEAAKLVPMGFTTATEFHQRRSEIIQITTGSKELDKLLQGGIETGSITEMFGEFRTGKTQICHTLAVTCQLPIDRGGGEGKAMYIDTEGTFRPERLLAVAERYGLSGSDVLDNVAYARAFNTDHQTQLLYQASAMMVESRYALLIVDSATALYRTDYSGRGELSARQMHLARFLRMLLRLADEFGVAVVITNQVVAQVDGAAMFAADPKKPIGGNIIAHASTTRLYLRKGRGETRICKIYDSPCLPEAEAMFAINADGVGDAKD", "experiment": "FLIM"}, "RAD51 [2]": {"target": "T1, RAD51", "experiment": "BLI"}},
  "data": [
    {"binder": "GCCCCGCCCCGCCCC (ssDNA, locked bases at both ends stated for in-cell assays; unclear for FLIM)", "note": "[rcApt Texas Red]", "values": [
      {"measurement": "binding result", "setting": "RAD51 [1]", "value": "no binding"}
    ]},
    {"binder": "GCGGGGGCGGGG (ssDNA)", "note": "[Apt4]", "values": [
      {"measurement": "Kd", "setting": "RAD51 [2]", "value": "413 ± 11", "unit": "nM"}
    ]},
    {"binder": "GGGGGGGGGGGGGGG (ssDNA)", "note": "[Apt2]", "values": [
      {"measurement": "Kd", "setting": "RAD51 [2]", "value": "138 ± 4", "unit": "nM"}
    ]},
    {"binder": "CGGCGCGGCGCGGCG (ssDNA)", "note": "[Apt3]", "values": [
      {"measurement": "Kd", "setting": "RAD51 [2]", "value": "188 ± 13", "unit": "nM"}
    ]},
    {"binder": "GGGGCGGGGCGGGGC (ssDNA, locked bases at both ends stated for in-cell assays; unclear for FLIM)", "note": "[Apt1 Texas Red]", "values": [
      {"measurement": "binding result", "setting": "RAD51 [1]", "value": "binds"}
    ]},
    {"binder": "GGGGCGGGGCGGGGC (ssDNA)", "note": "[Apt1]", "values": [
      {"measurement": "Kd", "setting": "RAD51 [2]", "value": "116 ± 14", "unit": "nM"}
    ]},
    {"binder": "CGGGCGGGCGGG (ssDNA)", "note": "[Apt5]", "values": [
      {"measurement": "Kd", "setting": "RAD51 [2]", "value": "936 ± 39", "unit": "nM"}
    ]},
    {"binder": "GCCCCGCCCCGCCCC (ssDNA)", "note": "[rcApt]", "values": [
      {"measurement": "binding result", "setting": "RAD51 [2]", "value": "no binding"}
    ]}
  ]
}
